Publication PMC10899771

T1: BabAgo (short pAgo subunit of BabSPARTA);BabTIR-APAZ (subunit of BabSPARTA) (Bacillales bacterium;Bacillales …, UniProt PDB:8QLP_2;PDB:8QLP_1 1-507;1-452, |)
T1 sequence 1: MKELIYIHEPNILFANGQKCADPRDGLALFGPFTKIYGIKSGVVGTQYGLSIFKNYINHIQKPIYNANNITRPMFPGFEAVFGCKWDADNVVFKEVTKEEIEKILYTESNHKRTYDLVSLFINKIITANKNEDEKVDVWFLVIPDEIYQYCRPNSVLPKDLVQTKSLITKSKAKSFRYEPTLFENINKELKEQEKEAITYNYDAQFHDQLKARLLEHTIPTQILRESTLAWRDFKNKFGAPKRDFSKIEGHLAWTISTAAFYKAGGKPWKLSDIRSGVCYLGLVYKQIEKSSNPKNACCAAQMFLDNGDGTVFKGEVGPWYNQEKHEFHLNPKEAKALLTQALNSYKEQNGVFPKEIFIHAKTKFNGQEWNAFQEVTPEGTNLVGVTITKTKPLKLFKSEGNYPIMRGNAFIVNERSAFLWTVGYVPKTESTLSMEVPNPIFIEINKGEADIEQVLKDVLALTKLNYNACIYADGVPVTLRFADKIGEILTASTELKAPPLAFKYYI
T1 sequence 2: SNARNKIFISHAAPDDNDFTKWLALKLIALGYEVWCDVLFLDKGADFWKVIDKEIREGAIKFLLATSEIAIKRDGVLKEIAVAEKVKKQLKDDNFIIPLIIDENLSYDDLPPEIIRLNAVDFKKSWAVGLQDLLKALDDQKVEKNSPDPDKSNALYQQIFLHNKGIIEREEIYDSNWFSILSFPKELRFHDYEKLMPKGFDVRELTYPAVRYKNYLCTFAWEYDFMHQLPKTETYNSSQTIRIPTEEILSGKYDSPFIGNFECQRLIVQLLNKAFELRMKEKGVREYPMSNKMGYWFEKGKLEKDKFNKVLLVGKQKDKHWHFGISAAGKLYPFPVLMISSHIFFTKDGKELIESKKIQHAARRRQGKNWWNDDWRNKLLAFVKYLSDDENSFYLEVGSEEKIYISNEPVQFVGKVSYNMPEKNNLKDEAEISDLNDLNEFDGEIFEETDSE

B1: guide RNA oBK084 / target DNA oBK382 (DNA:RNA)
RNA: UGACGGCUCUAAUCUAUUAGU
DNA: CAACTAATAGATTAGAGCCGTCAAT
modifications: 5'-phosphate on guide RNA

Tests used:
[1] = target: BabSPARTA complex (BabAgo:BabTIR-APAZ heterodimer) (Bacillales bacterium); assay: cryo-EM structure
[2] = target: T1, BabAgo (short pAgo subunit of …); assay: cryo-EM structure

Molecule	stoichiometry N [1]	binding result [2]
BabSPARTA complex (BabAgo:BabTIR-APAZ heterodimer)	4	–
B1	–	binds
